First the molecules themselves.
B1: Genetic suppressor element 1 (Homo sapiens), Q14687 (parent)
chain: MKGMSHEPKSPSLGMLSTATRTTATVNPLTPSPLNGALVPSGSPATSSALSAQAAPSSSFAAALRKLAKQAEEPRGSSLSSESSPVSSPATNHSSPASTPKRVPMGPIIVPPGGHSVPSTPPVVTIAPTKTVNGVWRSESRQDAGSRSSSGGRERLIVEPPLPQEKAGGPAIPSHLLSTPYPFGLSPSSVVQDSRFPPLNLQRPVHHVVPPSTVTEDYLRSFRPYHTTDDLRMSSLPPLGLDPATAAAYYHPSYLAPHPFPHPAFRMDDSYCLSALRSPFYPIPTPGSLPPLHPSAMHLHLSGVRYPPELSHSSLAALHSERMSGLSAERLQMDEELRREREREREREREREADREREKEREREREKEREQEKEREREKERERELERQREQRAREKELLAAKALEPSFLPVAELHGLRGHATEERGKPSEQLTPTRAEKLKDAGLQAPKPVQHPLHPVPTPHHTVPSLISNHGIFSLPSSSAATALLIQRTNEEEKWLARQRRLRQEKEDRQSQVSEFRQQVLEQHLDMGRPPVPAEAEHRPESTTRPGPNRHEPGGRDPPQHFGGPPPLISPKPQLHAAPTALWNPVSLMDNTLETRRAESHSLHSHPAAFEPSRQAAVPLVKVERVFCPEKAEEGPRKREPAPLDKYQPPPPPPREGGSLEHQPFLPGPGPFLAELEKSTQTILGQQRASLPQAATFGELSGPLKPGSPYRPPVPRAPDPAYIYDEFLQQRRRLVSKLDLEERRRREAQEKGYYYDLDDSYDESDEEEVRAHLRCVAEQPPLKLDTSSEKLEFLQLFGLTTQQQKEELVAQKRRKRRRMLRERSPSPPTIQSKRQTPSPRLALSTRYSPDEMNNSPNFEEKKKFLTIFNLTHISAEKRKDKERLVEMLRAMKQKALSAAVADSLTNSPRDSPAVSLSEPATQQASLDVEKPVGVAASLSDIPKAAEPGKLEQVRPQELSRVQELAPASGEKARLSEAPGGKKSLSMLHYIRGAAPKDIPVPLSHSTNGKSKPWEPFVAEEFAHQFHESVLQSTQKALQKHKGSVAVLSAEQNHKVDTSVHYNIPELQSSSRAPPPQHNGQQEPPTARKGPPTQELDRDSEEEEEEDDEDGEDEEEVPKRKWQGIEAVFEAYQEHIEEQNLERQVLQTQCRRLEARHYSLSLTAEQLSHSVAELRSQKQKMVSERERLQAELDHLRKCLALPAMHWPRGYLKGYPR
partner: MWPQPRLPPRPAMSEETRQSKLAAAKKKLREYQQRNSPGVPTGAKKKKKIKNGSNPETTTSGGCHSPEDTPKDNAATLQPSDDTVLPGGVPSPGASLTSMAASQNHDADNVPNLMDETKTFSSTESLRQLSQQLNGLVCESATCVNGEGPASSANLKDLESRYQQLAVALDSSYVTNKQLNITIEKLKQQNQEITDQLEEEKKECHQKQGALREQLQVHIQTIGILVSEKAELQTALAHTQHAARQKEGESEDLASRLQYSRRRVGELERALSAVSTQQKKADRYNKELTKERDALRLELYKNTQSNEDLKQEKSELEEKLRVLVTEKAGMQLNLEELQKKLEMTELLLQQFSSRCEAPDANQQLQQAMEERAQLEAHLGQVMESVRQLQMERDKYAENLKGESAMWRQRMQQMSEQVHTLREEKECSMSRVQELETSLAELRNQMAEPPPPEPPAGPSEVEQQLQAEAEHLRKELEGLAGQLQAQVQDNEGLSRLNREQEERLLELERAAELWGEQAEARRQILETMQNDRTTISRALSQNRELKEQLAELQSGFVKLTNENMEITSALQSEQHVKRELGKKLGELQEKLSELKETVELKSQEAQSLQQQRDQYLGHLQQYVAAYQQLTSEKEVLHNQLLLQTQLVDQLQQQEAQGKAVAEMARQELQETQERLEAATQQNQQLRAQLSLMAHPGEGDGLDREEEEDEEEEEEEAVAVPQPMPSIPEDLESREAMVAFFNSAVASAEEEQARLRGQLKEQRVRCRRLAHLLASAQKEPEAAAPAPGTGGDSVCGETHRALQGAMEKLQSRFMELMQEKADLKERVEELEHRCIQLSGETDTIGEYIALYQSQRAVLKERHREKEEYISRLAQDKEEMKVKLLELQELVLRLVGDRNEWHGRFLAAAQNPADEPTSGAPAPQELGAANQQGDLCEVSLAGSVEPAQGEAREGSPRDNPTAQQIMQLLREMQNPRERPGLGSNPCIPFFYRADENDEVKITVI
B2: Genetic suppressor element 1 (Homo sapiens), Q14687 (parent)
chain: B1 chain
B3: Inositol polyphosphate 5-phosphatase K (Homo sapiens), Q9BT40 (parent)
chain: MSSRKLSGPKGRRLSIHVVTWNVASAAPPLDLSDLLQLNNRNLNLDIYVIGLQELNSGIISLLSDAAFNDSWSSFLMDVLSPLSFIKVSHVRMQGILLLVFAKYQHLPYIQILSTKSTPTGLFGYWGNKGGVNICLKLYGYYVSIINCHLPPHISNNYQRLEHFDRILEMQNCEGRDIPNILDHDLIIWFGDMNFRIEDFGLHFVRESIKNRCYGGLWEKDQLSIAKKHDPLLREFQEGRLLFPPTYKFDRNSNDYDTSEKKRKPAWTDRILWRLKRQPCAGPDTPIPPASHFSLSLRGYSSHMTYGISDHKPVSGTFDLELKPLVSAPLIVLMPEDLWTVENDMMVSYSSTSDFPSSPWDWIGLYKVGLRDVNDYVSYAWVGDSKVSCSDNLNQVYIDISNIPTTEDEFLLCYYSNSLRSVVGISRPFQIPPGSLREDPLGEAQPQI
partner: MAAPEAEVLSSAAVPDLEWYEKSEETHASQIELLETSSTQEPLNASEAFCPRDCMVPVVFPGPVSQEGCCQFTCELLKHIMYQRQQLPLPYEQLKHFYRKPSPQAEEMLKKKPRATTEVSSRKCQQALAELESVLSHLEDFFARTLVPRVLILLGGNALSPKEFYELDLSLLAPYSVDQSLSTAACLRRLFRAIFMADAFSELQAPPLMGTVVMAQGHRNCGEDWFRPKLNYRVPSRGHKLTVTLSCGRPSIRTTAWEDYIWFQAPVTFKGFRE
B4: Protein VAC14 homolog (Homo sapiens), Q08AM6 (parent)
chain: MNPEKDFAPLTPNIVRALNDKLYEKRKVAALEIEKLVREFVAQNNTVQIKHVIQTLSQEFALSQHPHSRKGGLIGLAACSIALGKDSGLYLKELIEPVLTCFNDADSRLRYYACEALYNIVKVARGAVLPHFNVLFDGLSKLAADPDPNVKSGSELLDRLLKDIVTESNKFDLVSFIPLLRERIYSNNQYARQFIISWILVLESVPDINLLDYLPEILDGLFQILGDNGKEIRKMCEVVLGEFLKEIKKNPSSVKFAEMANILVIHCQTTDDLIQLTAMCWMREFIQLAGRVMLPYSSGILTAVLPCLAYDDRKKSIKEVANVCNQSLMKLVTPEDDELDELRPGQRQAEPTPDDALPKQEGTASGGPDGSCDSSFSSGISVFTAASTERAPVTLHLDGIVQVLNCHLSDTAIGMMTRIAVLKWLYHLYIKTPRKMFRHTDSLFPILLQTLSDESDEVILKDLEVLAEIASSPAGQTDDPGPLDGPDLQASHSELQVPTPGRAGLLNTSGTKGLECSPSTPTMNSYFYKFMINLLKRFSSERKLLEVRGPFIIRQLCLLLNAENIFHSMADILLREEDLKFASTMVHALNTILLTSTELFQLRNQLKDLKTLESQNLFCCLYRSWCHNPVTTVSLCFLTQNYRHAYDLIQKFGDLEVTVDFLAEVDKLVQLIECPIFTYLRLQLLDVKNNPYLIKALYGLLMLLPQSSAFQLLSHRLQCVPNPELLQTEDSLKAAPKSQKADSPSIDYAELLQHFEKVQNKHLEVRHQRSGRGDHLDRRVVL
partner: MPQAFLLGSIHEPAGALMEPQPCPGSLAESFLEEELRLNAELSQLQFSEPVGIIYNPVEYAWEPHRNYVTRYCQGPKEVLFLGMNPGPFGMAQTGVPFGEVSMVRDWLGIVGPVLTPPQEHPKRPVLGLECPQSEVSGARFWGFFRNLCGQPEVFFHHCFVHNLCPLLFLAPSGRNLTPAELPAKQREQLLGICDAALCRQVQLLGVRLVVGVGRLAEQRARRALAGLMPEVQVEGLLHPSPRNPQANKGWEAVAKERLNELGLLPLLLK
B5: Genetic suppressor element 1 (Homo sapiens), Q14687 (parent)
chain: B1 chain
partner: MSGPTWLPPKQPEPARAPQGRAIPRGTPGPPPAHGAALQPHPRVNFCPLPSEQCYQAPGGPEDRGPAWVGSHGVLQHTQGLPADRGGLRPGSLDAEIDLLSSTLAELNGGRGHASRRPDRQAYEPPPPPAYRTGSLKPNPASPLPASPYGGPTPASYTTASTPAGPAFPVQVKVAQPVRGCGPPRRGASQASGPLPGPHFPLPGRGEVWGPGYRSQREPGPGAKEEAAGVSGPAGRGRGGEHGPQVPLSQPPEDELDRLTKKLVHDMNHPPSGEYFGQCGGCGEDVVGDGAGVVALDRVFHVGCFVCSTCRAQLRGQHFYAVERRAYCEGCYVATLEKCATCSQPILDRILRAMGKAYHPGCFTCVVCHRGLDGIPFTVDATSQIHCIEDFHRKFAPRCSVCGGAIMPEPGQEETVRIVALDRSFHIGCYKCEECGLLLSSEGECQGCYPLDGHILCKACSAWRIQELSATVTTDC
B6: Protein VAC14 homolog (Homo sapiens), Q08AM6 (parent)
chain: B4 chain
partner: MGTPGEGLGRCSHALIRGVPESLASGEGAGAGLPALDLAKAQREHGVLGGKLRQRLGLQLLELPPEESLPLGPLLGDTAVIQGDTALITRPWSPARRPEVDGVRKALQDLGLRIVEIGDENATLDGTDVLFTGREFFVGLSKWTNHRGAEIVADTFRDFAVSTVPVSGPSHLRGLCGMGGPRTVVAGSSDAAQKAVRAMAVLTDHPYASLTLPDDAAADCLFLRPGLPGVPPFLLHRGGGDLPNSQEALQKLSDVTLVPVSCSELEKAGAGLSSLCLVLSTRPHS
B7: Inositol polyphosphate 5-phosphatase K (Homo sapiens), Q9BT40 (parent)
chain: B3 chain

In one test the parent is B1. The following applies: with goga2_human GOLGA2, Q08379.
As for R503Q, the “effect of a mutation on the interaction” value was “with no effect”.

The variants in the next test derive from B1. The settings on record: with goga2_human GOLGA2, Q08379. This is another data set of the same source.
For the variant E368K, the “effect of a mutation on the interaction” value is reported as “with no effect”.

The next test covers variants of B2. The following applies: with rbpms_human RBPMS.
As to R503Q, the “effect of a mutation on the interaction” value was “with no effect”.

In a further test the parent is B2. The following applies: with rcor3_human RCOR3, Q9P2K3.
As for R503Q, the “effect of a mutation on the interaction” value is “with no effect”.

The variants in a further test derive from B2. The settings on record: with rbpms_human RBPMS. This is another data set of the same source.
For E368K, the “effect of a mutation on the interaction” value is “with no effect”.

Another test covers variants of B2. The following applies: with rcor3_human RCOR3, Q9P2K3. This is another data set of the same source.
Consider E368K, for which the “effect of a mutation on the interaction” value was “with no effect”.

The variants in a further test derive from B3. The following applies: with md2bp_human MAD2L1BP.
On to MSSRKLSGPKGRRLSIHVVTWNVASAAPPLDLSDLLQLNNRNLNLDIYVIGLQELNSGIISLLSDAAFNDSWSSFLMDVLSPLSFIKVSHVRMQGILLLVFAKYQHLPYIQILSTKSTPTGLFGYWGNKGGVNICLKLYGYYVSIINCHLPPHISNNYQRLEHFDRILEMQNCEGRDIPNILDHDLIIWFGDMNFRIEDFGLHFVRESIKNRCYGGLWEKDQLSIAKKHDPLLREFQEGRLLFPPTYKFDRNSNDYDTSEKKRKPAWTDRILWRLKRQPCAGPDTPIPPASHFSLSLRGYSSHMTYGISDHKPVSGTFDLELKPLVSAPLIVLMPEDLWTVENDMMVSYSSTSDFPSSPWDWIGLYKVGLRDVNDYVSYAWVGDSKVSCSDNLNQVYIDISNIPTTEDEFLLCYYSNSLRSVVGISRPFQIPPGSLKEDPLGEAQPQI [R437K], for which the “effect of a mutation on the interaction” value is given as “disrupting interaction strength”.

Variants of B4 are the subject of another test. The settings on record: with smug1_human SMUG1, Q53HV7.
As for A127S, the “effect of a mutation on the interaction” value is on record as “with no effect”.

A further test covers variants of B5. The following applies: with trip6_human TRIP6, Q15654.
Regarding R503Q, the “effect of a mutation on the interaction” value was “with no effect”.

Variants of B5 are the subject of a further test. The following applies: with trip6_human TRIP6, Q15654. The source holds these as a separate data set.
For the variant E368K, the “effect of a mutation on the interaction” value is listed as “with no effect”.

The next test covers variants of B6. The settings on record: with ddah2_human DDAH2, O95865.
Turning to A127S, the “effect of a mutation on the interaction” value is recorded as “with no effect”.

In the next test the parent is B7. The following applies: with ar6p1_human ARL6IP1, Q15041.
Sequence of ar6p1_human ARL6IP1, Q15041 (Q15041 whole entry): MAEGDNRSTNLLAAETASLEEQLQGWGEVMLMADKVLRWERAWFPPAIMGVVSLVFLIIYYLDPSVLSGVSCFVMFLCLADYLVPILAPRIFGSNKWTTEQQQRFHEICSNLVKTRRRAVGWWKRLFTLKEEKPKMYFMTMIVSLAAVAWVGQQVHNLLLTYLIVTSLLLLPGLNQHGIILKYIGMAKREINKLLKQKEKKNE
As to MSSRKLSGPKGRRLSIHVVTWNVASAAPPLDLSDLLQLNNRNLNLDIYVIGLQELNSGIISLLSDAAFNDSWSSFLMDVLSPLSFIKVSHVRMQGILLLVFAKYQHLPYIQILSTKSTPTGLFGYWGNKGGVNICLKLYGYYVSIINCHLPPHISNNYQRLEHFDRILEMQNCEGRDIPNILDHDLIIWFGDMNFRIEDFGLHFVRESIKNRCYGGLWEKDQLSIAKKHDPLLREFQEGRLLFPPTYKFDRNSNDYDTSEKKRKPAWTDRILWRLKRQPCAGPDTPIPPASHFSLSLRGYSSHMTYGISDHKPVSGTFDLELKPLVSAPLIVLMPEDLWTVENDMMVSYSSTSDFPSSPWDWIGLYKVGLRDVNDYVSYAWVGDSKVSCSDNLNQVYIDISNIPTTEDEFLLCYYSNSLRSVVGISRPFQIPPGSLKEDPLGEAQPQI [R437K], the “effect of a mutation on the interaction” value was “with no effect”.

The values are drawn from IntAct's records for PubMed 29892012.
